Assay results taken from patent US20210238265A1 (Biogen, published 2021).

Target: T1, His-tagged Tau domain IV (AA 355-441 of hTau40) (human, UniProt O02828 317-403 (Capra hircus entry))
T1 construct: Expressed in E. coli BL21 (DE3) and purified on Ni-NTA; not shown: N-terminal 6xHis tag from pRSET-A vector
Assay: Western blot of His-tagged tau domains and hTau40
Experimental: DNA fragments, synthesized using GeneArt® (Invitrogen), which encode each Tau domain with 6×His tagged at the N-terminus were cloned into the pRSET-A expression vector (Invitrogen), were transfected into E. coli BL21 (DE3) (New England Biolabs). The expressions of the His-tagged Tau domains were induced by 0.5 mM IPTG for six hours before bacteria were lysed with lysozyme with sonication. The lysate was boiled for five minutes before being further purified with Ni-NTA Superflow Columns (Qiagen). The eluted His-tagged Tau domains were coated on ELISA plates or loaded on polyacrylamide gel for Western Blot. These sequentially overlapping tau domain polypeptides cover the full length of hTau40 (FIG. 13A).

T1 sequence (O02828 317-403): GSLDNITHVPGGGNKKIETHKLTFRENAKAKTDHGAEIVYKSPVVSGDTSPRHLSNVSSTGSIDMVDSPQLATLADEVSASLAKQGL

B1: Recombinant human antibody NI-105.4A3 (antibody, V domains shown)
VH: QVQLVESGGGAVQPGGSLRLSCAASGFTFSDYAMHWVRQAPGKGLQWVAVISYEGTYKYYADSVKGRFTISRDNSKNTLNLQMSSLRVEDTAVYFCVKARAFASGQRSTSTVPDYWGQGTLVTVSS
VL: SYELTQPPSVSVSPGQTARITCSGDALPKKYAYWYQQKSGQAPVLVIYEDNKRPSGIPERFSGSSSGTVATLTISGAQVDDEADYYCYSTDISGDLRVFGGGTKLTVL
B1: no binding.
